Values belong to the binder of their own block, whether it stands above or below them.
How the values were obtained:
LKPG-cpHaloΔ2-PDYE = assay: cell-based or functional assay
cpHaloΔ2 = biological target: T1, cpHaloΔ2; assay: EC50 of the split-HaloTag labeling reaction (fluorescence polarization)
T1 construct: also called linker04/E20S/N119H/V184E/V197K; improved cpHaloΔ variant

cpHaloΔ = biological target: T2, cpHaloΔ; assay: method not stated
T2 construct: Used as purified protein; also called original cpHaloΔ; first partial effector
T2 sequence (chain, as listed by the source mutant): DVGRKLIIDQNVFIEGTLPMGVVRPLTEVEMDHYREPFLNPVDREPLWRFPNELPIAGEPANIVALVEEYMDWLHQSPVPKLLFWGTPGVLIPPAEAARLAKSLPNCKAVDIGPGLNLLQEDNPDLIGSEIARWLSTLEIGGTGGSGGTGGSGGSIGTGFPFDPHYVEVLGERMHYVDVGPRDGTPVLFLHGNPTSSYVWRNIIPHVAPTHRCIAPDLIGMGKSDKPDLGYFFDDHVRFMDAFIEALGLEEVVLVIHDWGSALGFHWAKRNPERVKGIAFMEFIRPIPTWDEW

T1 sequence (chain, as listed by the source mutant): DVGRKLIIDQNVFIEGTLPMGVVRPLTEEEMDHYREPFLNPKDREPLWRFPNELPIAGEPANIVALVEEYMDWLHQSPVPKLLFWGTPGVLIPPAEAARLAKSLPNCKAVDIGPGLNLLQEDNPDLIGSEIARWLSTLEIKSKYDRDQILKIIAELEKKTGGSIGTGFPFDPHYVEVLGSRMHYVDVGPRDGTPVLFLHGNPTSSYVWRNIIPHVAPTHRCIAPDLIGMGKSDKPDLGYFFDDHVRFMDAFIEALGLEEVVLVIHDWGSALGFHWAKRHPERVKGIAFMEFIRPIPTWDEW
Sequence of LKPG-cpHaloΔ2-PDYE (chain, as listed by the source mutant): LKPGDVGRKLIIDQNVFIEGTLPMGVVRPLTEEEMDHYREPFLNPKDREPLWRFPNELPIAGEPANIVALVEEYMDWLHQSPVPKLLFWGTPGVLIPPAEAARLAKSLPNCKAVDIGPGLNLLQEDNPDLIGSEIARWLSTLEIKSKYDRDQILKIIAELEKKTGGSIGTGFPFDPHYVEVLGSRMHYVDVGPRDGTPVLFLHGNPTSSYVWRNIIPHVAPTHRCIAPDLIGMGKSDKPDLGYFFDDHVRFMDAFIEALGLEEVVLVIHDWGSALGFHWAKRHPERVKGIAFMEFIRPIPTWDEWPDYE

EC50 of the labeling reaction (LKPG-cpHaloΔ2-PDYE): 0.000382 µM | fold lower EC50 than cpHaloΔ2 (LKPG-cpHaloΔ2-PDYE): 6.6 fold | binding result (cpHaloΔ2): binds
B1: Hpep RGWSWREMFRLFRT (peptide)
peptide: RGWSWREMFRLFRT

binding result (cpHaloΔ2): binds
B2: Hpep RMWTWREMFRLFRT (peptide)
peptide: RMWTWREMFRLFRT

binding result (cpHaloΔ2): binds
B3: Hpep RQWSWREMFRLFRT (peptide)
peptide: RQWSWREMFRLFRT

Kd (cpHaloΔ): 4600 µM
B4: Hpep1 (peptide)
peptide: ARETFQAFRT
notes: Residues 145-154 of HaloTag; also called original Halo-Peptide; original Hpep (10mer)

— EP4421166A1 (Max-Planck-Gesellschaft zur Förderung der Wissenschaften …, dated 2024)
